Measured values as given in publication PMC8847413 (Nature Communications, 2022).

B1: MAb 2H2 (antibody, V domains shown)
VH: QVQLKQSGPSLVQPSQSLSITCTVSGFSLTSYGVHWVRQSPGKGLEWLGVMWRGGNTDYNAAFMSRLSITKDNSKSQVFFKMNSLQTDDTAIYYCAKNGGAHAMDFWGQGTSVTVSS
VL: NIVLTQSPASLAVSLGQRATISCRASESVDSYGNSFLHWYQQKPGQPPKLLIYLASNLESGVPARFSGSGSRTDFTLTIDPVEADDAATYYCQQNNEDPFTFGSGTKLEIK
notes: copies: 2 + 2
B2: MAb 3C1 (antibody, V domains shown)
VH: EVQLQESGPSLVKPSQTLSLTCSVTGDSITNGYWNWIRKFPGNKLEYMGYISYSGSTYYSPSLKSRISITRDTSKNQHYLQLNSVTSEDTATYYCASDYHGSKYYFDYWGQGTTLTVSS
VL: DIVMTQSHKFMSTSVGHRVSITCKASQDVGNDVAWYQQKPGQSPKLLIYWASTRHTGVPDRFTGSGSGTDFTLTISNVQSEDLADYFCQQYNRYPYTFGGGTKLEIK
notes: copies: 2 + 2
B3: MAb 8D3 (IgG) (antibody, V domains shown)
VH: EVQLQQSGPELVKPGASVKISCKTSGYTFTEYTMYWVKQSHGKSLEWIGGINPNIGDTSYNQNFKGKATLTVDRSSSTAYMELRSLTSEDSAVYYCARDGYPYYYALDHWGQGTSVTVSS
VL: DIVMTQSQKFMSTSVGDRVSVTCKASQNVGTNVAWYQQKPGQSPKALIYSTSYRYSGVPDRFTGSGSGTDFTLTISNVQSEDLAEYFCQQYNSYPYTFGGGTKLEIK
notes: copies: 2 + 2

Biological target: T1, recombinant RBD protein derived from the SARS-CoV-2 WT strain (SARS-CoV-2 wild type (Wuhan-Hu-1), UniProt P0DTC2)
T1 construct: also called WT-RBD; WT RBD
Assay: ELISA
Conditions: both partners purified

Binder | binding result
B1 | binds
B2 | binds
B3 | binds
